Laboratory results: PMC10249358, “Elucidation of Short Linear Motif-Based Interactions of the FERM Domains of Ezrin, Radixin, Moesin, and Merlin” (Biochemistry, 2023)
No end group written: not given here. *: point of attachment. FITC = O=C1OC2(c3ccc(O)cc3Oc3cc(O)ccc32)c2ccc(NC(=S)*)cc21

Tests used:
Conditions in all cases: both partners purified
moesin FERM domain [1] = target: T1, moesin FERM domain (UniProt P26038 2-295); test: fluorescence polarisation; competition: precomplex of FERM domain (2 x KD) and FITC-KIRREL3(637–652) probe, titrated with unlabeled peptide; constants printed as KD′; FP buffer
T1 construct: moesin FERM domain from pGEX4T Moesin FERM; also called WT moesin; source: E. coli BL21(DE3), purified (GSH sepharose, thrombin cleavage on beads, benzamidine column, gel filtration); not shown: GST, N-terminal, cleaved

merlin FERM domain = target: T2, merlin FERM domain (human, UniProt P35240 22-312); test: fluorescence polarisation; direct binding: 5 nM FITC-labeled probe peptide titrated with FERM domain; 20 mM HEPES pH 7.4, 150 mM NaCl, 0.05% Tween-20, 3 mM DTT; quadratic equation for 1:1 binding
T2 construct: human merlin (NF2) FERM domain, amino acids 22-312, synthetic gene in pETM33; source: E. coli BL21(DE3), purified (GSH sepharose, HRV3C cleavage, reverse Ni-IMAC); not shown: His, N-terminal, cleaved; GST, N-terminal, cleaved
T2 sequence (looked up): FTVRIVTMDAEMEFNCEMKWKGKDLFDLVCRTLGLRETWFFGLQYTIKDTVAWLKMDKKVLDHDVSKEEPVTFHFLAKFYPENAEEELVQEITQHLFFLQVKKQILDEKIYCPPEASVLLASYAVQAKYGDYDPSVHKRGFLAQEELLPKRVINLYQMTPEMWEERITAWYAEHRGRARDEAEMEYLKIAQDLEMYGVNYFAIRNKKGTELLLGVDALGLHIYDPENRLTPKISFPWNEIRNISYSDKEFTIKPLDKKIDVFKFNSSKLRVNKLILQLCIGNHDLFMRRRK

[2] = target: T3, radixin FERM domain (as used in FP) (human, UniProt P35241 5-295); test: as above
T3 construct: human radixin FERM domain, amino acids 5-295, synthetic gene in pETM33; source: E. coli BL21(DE3), purified (GSH sepharose)

[3] = target: T4, ezrin FERM domain (as used in FP) (UniProt P15311 2-296); test: fluorescence polarisation; competition: precomplex of FERM domain (2 x KD) and FITC-KIRREL3(637–652) probe, titrated with unlabeled peptide; constants printed as KD′; FP buffer
T4 construct: ezrin FERM domain from pGEX4T1 Ezrin FERM; source: E. coli BL21(DE3), purified (GSH sepharose)

[4] = target: T3, radixin FERM domain (as used in FP); test: as above
moesin FERM domain [5] = target: T1, moesin FERM domain; test: fluorescence polarisation; competition: precomplex of moesin FERM and FITC-ZNF622 probe, titrated with unlabeled peptide; constants printed as KD′; FP buffer (for HIF1A the text names FITC-NOP53 as probe, the table's footnote FITC-ZNF622)
Moesin FERM M285A/H288A [6] = target: T5, Moesin FERM M285A/H288A (human, UniProt P26038 2-295, M285A | H288A); test: fluorescence polarisation; direct binding: FITC-labeled probe peptide (5 nM) titrated with a dilution series of moesin FERM domain; 20 mM HEPES, pH 7.4, 150 mM NaCl, 0.05% Tween-20, 3 mM DTT; quadratic equation for 1:1 binding
T5 construct: moesin (P26038) FERM domain from pGEX4T Moesin FERM (Addgene plasmid # 1163); also called moesin FERM domain (M285A and H288A); moesin FERM M285/H288A; source: E. coli BL21(DE3), purified (GSH sepharose, thrombin cleavage, HiTrap benzamidine)

Moesin FERM K211A/I238A [7] = target: T6, Moesin FERM K211A/I238A (human, UniProt P26038 2-295, K211A | I238A); test: as above
T6 construct: moesin (P26038) FERM domain from pGEX4T Moesin FERM (Addgene plasmid # 1163); also called moesin K211A/I238A; double mutant moesin FERM K211A/I238A; source: E. coli BL21(DE3), purified (GSH sepharose, thrombin cleavage, HiTrap benzamidine)

moesin FERM M285A/H288A [8] = target: T7, moesin FERM M285A/H288A (UniProt P26038 2-295, M285A | H288A); test: fluorescence polarisation; direct binding: 5 nM FITC-labeled probe peptide titrated with FERM domain; 20 mM HEPES pH 7.4, 150 mM NaCl, 0.05% Tween-20, 3 mM DTT; quadratic equation for 1:1 binding
T7 construct: moesin FERM domain from pGEX4T Moesin FERM, double mutant; tag removal is told for moesin FERM in FP in general; also called moesin FERM M285/H288A; source: E. coli BL21(DE3), purified; not shown: GST, N-terminal, cleaved

moesin FERM K211A/I238A [9] = target: T8, moesin FERM K211A/I238A (UniProt P26038 2-295, K211A | I238A); test: as above
T8 construct: moesin FERM domain from pGEX4T Moesin FERM, double mutant; tag removal is told for moesin FERM in FP in general; also called moesin K211A/I238A; source: E. coli BL21(DE3), purified; not shown: GST, N-terminal, cleaved
T8 sequence (P26038 2-295 K211A/I238A): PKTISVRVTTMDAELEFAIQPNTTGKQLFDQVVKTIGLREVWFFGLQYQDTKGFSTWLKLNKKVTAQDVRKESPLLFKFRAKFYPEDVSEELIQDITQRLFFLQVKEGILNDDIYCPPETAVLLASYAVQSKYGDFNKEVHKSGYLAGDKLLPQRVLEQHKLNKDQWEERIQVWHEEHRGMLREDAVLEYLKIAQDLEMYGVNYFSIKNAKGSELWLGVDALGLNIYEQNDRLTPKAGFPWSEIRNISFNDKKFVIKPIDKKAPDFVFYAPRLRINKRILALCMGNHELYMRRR

T1 sequence (P26038 2-295): as the sequence (P26038 2-295 K211A/I238A) above, with A210K, A237I counted along it
T3 sequence (P35241 5-295): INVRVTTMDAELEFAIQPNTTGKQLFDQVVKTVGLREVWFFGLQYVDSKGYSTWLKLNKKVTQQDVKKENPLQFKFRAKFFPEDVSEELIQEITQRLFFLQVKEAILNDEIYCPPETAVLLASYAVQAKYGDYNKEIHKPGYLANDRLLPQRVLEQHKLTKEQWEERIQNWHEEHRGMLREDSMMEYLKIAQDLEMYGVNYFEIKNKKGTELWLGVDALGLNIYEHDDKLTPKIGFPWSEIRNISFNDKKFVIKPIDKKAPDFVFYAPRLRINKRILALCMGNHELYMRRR
T4 sequence (P15311 2-296): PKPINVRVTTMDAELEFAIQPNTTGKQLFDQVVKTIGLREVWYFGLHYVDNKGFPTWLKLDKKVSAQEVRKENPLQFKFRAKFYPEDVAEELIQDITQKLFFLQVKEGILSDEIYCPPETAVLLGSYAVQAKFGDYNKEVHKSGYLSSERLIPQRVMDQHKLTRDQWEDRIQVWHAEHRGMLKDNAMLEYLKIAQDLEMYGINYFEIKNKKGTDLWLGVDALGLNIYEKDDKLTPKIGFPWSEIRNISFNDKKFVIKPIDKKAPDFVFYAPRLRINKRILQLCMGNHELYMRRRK
T5 sequence (P26038 2-295 M285A/H288A): as the sequence (P26038 2-295 K211A/I238A) above, with A210K, A237I, M284A, H287A counted along it
T6 sequence (P26038 2-295 K211A/I238A): as the sequence (P26038 2-295 K211A/I238A) above
T7 sequence (P26038 2-295 M285A/H288A): as the sequence (P26038 2-295 K211A/I238A) above, with A210K, A237I, M284A, H287A counted along it

B1: RIMS1(1405–1420) peptide (peptide)
peptide: MYTLEHNDGSQSDTAV
notes: RIMS1, human, residues 1405-1420; source: synthetic peptide (GeneCust)
Moesin FERM domain [1]
  Kd: 564 ± 5 µM

B2: FITC-LATS1(73–88) peptide (peptide)
peptide: THHKALQEIRNSLLPF
modifications: also: FITC label, position not given here
notes: LATS1, human, residues 73-88; also called LATS(73–88); source: synthetic peptide (GeneCust)
Merlin FERM domain
  binding result: binds
[2]
  binding result: binds

B3: CAMK2B(13–28) peptide (peptide)
peptide: EYQLYEDIGKGAFSVV
notes: CAMK2B, human, residues 13-28; source: synthetic peptide (GeneCust)
Moesin FERM domain [1]
  Kd: 96 ± 4 µM
[3]
  Kd: 26 ± 0.6 µM
[4]
  Kd: 6.8 ± 0.4 µM

B4: HIF1A(37–52) peptide (peptide)
peptide: FYELAHQLPLPHNVSS
notes: HIF1A, human, residues 37-52; source: synthetic peptide (GeneCust)
Moesin FERM domain [5]
  Kd: 3 ± 0.4 µM

B5: FITC-FAM83G(111–126) peptide (peptide, UniProt A6ND36 111-126, looked up)
peptide: AEPLPSLEYWPQKSDR
modifications: also: FITC label (position not given here)
notes: FAM83G, human, residues 111-126; source: synthetic peptide (GeneCust)
[2]
  binding result: binds

B6: FITC-TBX4(428–443) peptide (peptide, UniProt P57082 428-443, looked up)
peptide: SYSVQTMETVPYQPFP
modifications: also: FITC label, position not given here
notes: T-box transcription factor TBX4, human, residues 428-443; source: synthetic peptide (GeneCust)
[2]
  binding result: binds

B7: LATS1(421–436) peptide (peptide)
peptide: LYNISVPGLQTNWPQS
notes: LATS1, human, residues 421-436; source: synthetic peptide (GeneCust)
Moesin FERM domain [1]
  Kd: 149 ± 5 µM

B8: RORA(185–200) peptide (peptide)
peptide: TYNISANGLTELHDDL
notes: RORA, human, residues 185-200; source: synthetic peptide (GeneCust)
Moesin FERM domain [1]
  Kd: 134 ± 3 µM

B9: MISP(595–610) peptide (peptide)
peptide: ITGSYSVSESPFFSPI
notes: also called MISP3 peptide; source: synthetic peptide (GeneCust)
Moesin FERM domain [1]
  Kd: 2.3 ± 0.1 µM

B10: ICAM3(516–531) peptide (peptide)
peptide: SGSYHVREESTYLPLT
notes: ICAM3, human, residues 516-531; source: synthetic peptide (GeneCust)
Moesin FERM domain [1]
  Kd: 113 ± 3 µM

B11: FITC-ZNF622(341–356) peptide (peptide, UniProt Q969S3 341-356, looked up)
peptide: LEFADFYDFRSSYPDH
modifications: not fully specified (N-terminus); also: FITC label (position not given here)
notes: also called FITC-ZNZ622; source: synthetic peptide (GeneCust)
Merlin FERM domain
  binding result: binds
[2]
  binding result: binds

B12: FITC-KIRREL3(637–652) peptide (peptide, UniProt Q8IZU9 637-652, looked up)
peptide: YYSVNTFKEHHSTPTI
modifications: also: FITC label, position not given here
notes: source: synthetic peptide (GeneCust)
[2]
  binding result: binds

B13: BOC(1000–1015) peptide (peptide)
peptide: LYTLPDDSTHQLLQPH
notes: BOC, human, residues 1000-1015; source: synthetic peptide (GeneCust)
Moesin FERM domain [1]
  Kd: 18 ± 1 µM
[3]
  Kd: 8 ± 0.1 µM
[4]
  Kd: 17 ± 2 µM

B14: PDCD6IP(853–868) peptide (peptide)
peptide: SYPFPQPPQQSYYPQQ
notes: PDCD6IP, human, residues 853-868; source: synthetic peptide (GeneCust)
Moesin FERM domain [1]
  Kd: 35.2 ± 0.2 µM

B15: FITC-EBP50 343-358 peptide (peptide)
peptide: {FITC}-APQMDWSKKNELFSNL-OH
modifications: not fully specified
notes: also called NHERF1; source: synthetic peptide (GeneCust)
Moesin FERM M285A/H288A [6]
  Kd: 3.1 ± 0.2 µM
Moesin FERM K211A/I238A [7]
  Kd: 114 ± 7 µM

B16: FITC-TBX4 428-443 peptide (peptide)
peptide: SYSVQTMETVPYQPFP
modifications: also: FITC label, position not given here
notes: TBX4 (T-box transcription factor TBX4), residues 428-443; source: synthetic peptide (GeneCust)
Moesin FERM M285A/H288A [6]
  Kd: 6.9 ± 0.4 µM
Moesin FERM K211A/I238A [7]
  Kd: 2.17 ± 0.31 µM

B17: FITC-ZNF622 341-356 peptide (peptide)
peptide: LEFADFYDFRSSYPDH
modifications: also: FITC label, position not given here
notes: as for B12
Moesin FERM M285A/H288A [6]
  Kd: 1.3 ± 0.1 µM
Moesin FERM K211A/I238A [7]
  Kd: 46 ± 2 µM

B18: FITC-NOP53 192-207 peptide (peptide)
peptide: FYDLWASDNPLDRPLV
modifications: also: FITC label, position not given here
notes: NOP53, residues 192-207; source: synthetic peptide (GeneCust)
Moesin FERM M285A/H288A [6]
  Kd: 2.2 ± 0.1 µM
Moesin FERM K211A/I238A [7]
  Kd: 42 ± 1 µM

B19: FITC-LATS1 73-88 peptide (peptide)
peptide: THHKALQEIRNSLLPF
modifications: also: FITC label, position not given here
notes: LATS1, residues 73-88; source: synthetic peptide (GeneCust)
Moesin FERM M285A/H288A [6]
  Kd: 1.3 ± 0.1 µM
Moesin FERM K211A/I238A [7]
  Kd: 7.4 ± 0.5 µM

B20: FITC-KIRREL3 637-652 peptide (peptide)
peptide: YYSVNTFKEHHSTPTI
modifications: also: FITC label, position not given here
notes: as for B12
Moesin FERM M285A/H288A [6]
  Kd: 0.84 ± 0.05 µM
Moesin FERM K211A/I238A [7]
  Kd: 0.17 ± 0.02 µM

B21: FITC-EBP50(348–358) peptide (peptide, UniProt O14745 348-358, looked up)
peptide: WSKKNELFSNL
modifications: also: FITC label, position not given here
notes: as for B12
Merlin FERM domain
  binding result: binds
[2]
  binding result: binds
Moesin FERM M285A/H288A [8]
  binding result: binds
Moesin FERM K211A/I238A [9]
  binding result: binds

B22: GCM2(274–289) peptide (peptide)
peptide: SYELANPGYTNSSPYP
notes: GCM2, human, residues 274-289; source: synthetic peptide (GeneCust)
Moesin FERM domain [1]
  Kd: 38 ± 3 µM
[3]
  Kd: 205 ± 11 µM
[4]
  Kd: 85 ± 3 µM

B23: FITC-NOP53(192–207) peptide (peptide)
peptide: FYDLWASDNPLDRPLV
modifications: also: FITC label, position not given here
notes: NOP53, human, residues 192-207; source: synthetic peptide (GeneCust)
Merlin FERM domain
  binding result: binds
[2]
  binding result: binds

B24: RRBP1(1365–1380) peptide (peptide)
peptide: RAATRLQELLKTTQEQ
notes: RRBP1, human, residues 1365-1380; also called RRBP1 peptide; source: synthetic peptide (GeneCust)
Merlin FERM domain
  Kd: 9.7 ± 0.8 µM
